Columns and labels:
Assay in all cases: BLI
Details in all cases: BLI: 20 mM Tris-HCl pH 7.4, 80 mM NaCl, temperature not stated; pull-down: 20 mM Tris-HCl pH 7.5, 300 mM KCl, 0.2 mM EDTA, 0.5 mM DTT, 5 ug/ml poly(I.C) …
[1] = tested on: T1, RBM45 aa 2-257 as printed, Q8IUH3-3
T1 sequence: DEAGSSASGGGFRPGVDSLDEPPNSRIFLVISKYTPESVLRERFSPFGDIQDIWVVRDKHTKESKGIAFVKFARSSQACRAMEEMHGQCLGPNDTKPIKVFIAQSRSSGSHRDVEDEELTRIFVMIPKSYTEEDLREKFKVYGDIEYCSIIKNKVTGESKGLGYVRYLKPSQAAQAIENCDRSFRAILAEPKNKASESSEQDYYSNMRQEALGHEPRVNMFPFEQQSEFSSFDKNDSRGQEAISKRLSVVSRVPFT

[2] = tested on: T2, RBM45 domain 2-3, Q8IUH3-3
T2 sequence: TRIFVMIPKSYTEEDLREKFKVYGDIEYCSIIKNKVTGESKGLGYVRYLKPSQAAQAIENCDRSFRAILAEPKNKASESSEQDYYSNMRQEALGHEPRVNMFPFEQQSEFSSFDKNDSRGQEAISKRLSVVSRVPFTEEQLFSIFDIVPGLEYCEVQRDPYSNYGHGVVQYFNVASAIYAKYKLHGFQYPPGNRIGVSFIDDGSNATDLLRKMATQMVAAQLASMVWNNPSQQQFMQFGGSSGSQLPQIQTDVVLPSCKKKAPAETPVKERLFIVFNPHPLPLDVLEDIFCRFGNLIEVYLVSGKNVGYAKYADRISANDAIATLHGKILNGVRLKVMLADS

[3] = tested on: T3, RBM45 RRM2-HOA (domain 2-HOA), Q8IUH3-3
T3 sequence: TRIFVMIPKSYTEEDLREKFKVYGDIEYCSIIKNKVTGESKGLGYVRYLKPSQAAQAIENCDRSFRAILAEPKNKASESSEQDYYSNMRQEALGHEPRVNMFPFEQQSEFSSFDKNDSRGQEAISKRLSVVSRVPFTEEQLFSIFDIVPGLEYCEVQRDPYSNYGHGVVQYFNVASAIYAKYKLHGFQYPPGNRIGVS

## GUAAAGCUACGGGACGGU [ISE3]
[1]
  Kd: 43 nM
[2]
  Kd: 21.8 nM
[3]
  Kd: 21.3 nM

Reference: article PMC7064759
